Results: patent publication US20120027687A1, “FATTY ACID PROTEIN KINASE C ACTIVATORS AND ANTICOAGULANT FOR THE TREATMENT OF STROKE” (priority 2010, published 2012)

Test system: ischemic stroke (MCAO)
Assay: Transient focal ischemia (MCAO) model of stroke
Format: in vivo, rat
Conditions: rats; rTPA 6 hours after stroke, with or without bryostatin-1 2 hours later
Procedure: A transient animal model of focal ischemia was used for these experiments. The middle cerebral artery (MCA) was surgically dissected and occluded in anesthetized rats by ligature, followed by reperfusion after a defined period (about 2 hours). Animal models transient ischemia via occlusion of the MCA (MCAO) are described in, e.g., Sicard and Fisher, Exp. & Transl. Stroke Med. (2009), vol. 1, pp. 1-7.

B1: rTPA: recombinant tissue plasminogen activator, thrombolytic serine protease (protein, UniProt P00750 36-562, looked up)
Tissue-type plasminogen …: SYQVICRDEKTQMIYQQHQSWLRPVLRSNRVEYCWCNSGRAQCHSVPVKSCSEPRCFNGGTCQQALYFSDFVCQCPEGFAGKCCEIDTRATCYEDQGISYRGTWSTAESGAECTNWNSSALAQKPYSGRRPDAIRLGLGNHNYCRNPDRDSKPWCYVFKAGKYSSEFCSTPACSEGNSDCYFGNGSAYRGTHSLTESGASCLPWNSMILIGKVYTAQNPSAQALGLGKHNYCRNPDGDAKPWCHVLKNRRLTWEYCDVPSCSTCGLRQYSQPQFRIKGGLFADIASHPWQAAIFAKHRRSPGERFLCGGILISSCWILSAAHCFQERFPPHHLTVILGRTYRVVPGEEEQKFEVEKYIVHKEFDDDTYDNDIALLQLKSDSSRCAQESSVVRTVCLPPADLQLPDWTECELSGYGKHEALSPFYSERLKEAHVRLYPSSRCTSQHLLNRTVTDNMLCAGDTRSGGPQANLHDACQGDSGGPLVCLNDGRMTLVGIISWGLGCGQKDVPGVYTKVTNYLDWIRDNMRP
B1 was tested, and the “mortality 24 hours later” value was 44%.
